This is an account of results in article PMC5798227.

The assay has as its target DS-SOSIP.664 trimer (BG505) (HIV-1 BG505 (clade A)). The assay can be described thus: SPR.

As to 2-domain soluble CD4 (receptor), the Kd was 8 nM.
